Measured values from patent US20260098059A1 (ENDOMET BIOSCIENCES, published 2026).
Several values for one entry are separate records, joined by “and”; a condition that tells them apart may be missing. Identical values can stand only once. Bridges are numbered along the chain shown (N, C = ends). Where no end group is shown, it is not given here. [ ]: non-standard residue; d: D form. The star is where a group is joined. NMeW = CN[C@@H](Cc1c[nH]c2ccccc12)C(=O)O; Stearoyl = CCCCCCCCCCCCCCCCCC(=O)*; Chg = N[C@H](C(=O)O)C1CCCCC1; NMeA = CN[C@@H](C)C(=O)O

B1: SEQ ID NO: 197 (peptide)
peptide: MWFLICFW
HELM: PEPTIDE1{[ac].M.W.F.L.I.C.F.W.[O=C(O)CCCN[*:1]]}$$$$V2.0
SMILES: CC[C@H](C)[C@H](NC(=O)[C@H](CC(C)C)NC(=O)[C@H](Cc1ccccc1)NC(=O)[C@H](Cc1c[nH]c2ccccc12)NC(=O)[C@H](CCSC)NC(C)=O)C(=O)N[C@@H](CS)C(=O)N[C@@H](Cc1ccccc1)C(=O)N[C@@H](Cc1c[nH]c2ccccc12)C(=O)NCCCC(=O)O
B2: SEQ ID NO: 102 (peptide)
peptide: WFLISFW
HELM: PEPTIDE1{[meW].F.L.I.S.F.W.[am]}$$$$V2.0
SMILES: CC[C@H](C)[C@H](NC(=O)[C@H](CC(C)C)NC(=O)[C@H](Cc1ccccc1)NC(=O)[C@H](Cc1c[nH]c2ccccc12)NC)C(=O)N[C@@H](CO)C(=O)N[C@@H](Cc1ccccc1)C(=O)N[C@@H](Cc1c[nH]c2ccccc12)C(N)=O
B3: SEQ ID NO: 434 (peptide)
peptide: [NMeA]QKILNEH[Chg]QRVWG-NH2
modifications: lactam 3-7; not fully specified (N-terminus); printed as H23C11C(O)NH-NMeA-QK*ILNE*H-Chg-QRVWG-NH2
B4: SEQ ID NO: 427 (peptide)
peptide: W[NMeA]QEILDKH[Chg]QRVWG-NH2
modifications: lactam 4-8; not fully specified (N-terminus); printed as H17C8C(O)NH-W-NMeA-QE*ILDK*H-Chg-QRVWG-NH2
B5: SEQ ID NO: 455 (peptide)
peptide: WXQKILNDHGQRVW
HELM: PEPTIDE1{[ac].W.[Aib].Q.K.I.L.N.D.H.[O=C([C@@H](N[*:1])C1CCCCC1)[*:2]].Q.R.V.W.[am]}$PEPTIDE1,PEPTIDE1,5:R3-9:R3$$$V2.0
SMILES: CC[C@H](C)[C@@H]1NC(=O)[C@@H](NC(=O)[C@H](CCC(N)=O)NC(=O)C(C)(C)NC(=O)[C@H](Cc2c[nH]c3ccccc23)NC(C)=O)CCCCNC(=O)C[C@@H](C(=O)N[C@@H](Cc2c[nH]cn2)C(=O)N[C@H](C(=O)N[C@@H](CCC(N)=O)C(=O)N[C@@H](CCCNC(=N)N)C(=O)N[C@H](C(=O)N[C@@H](Cc2c[nH]c3ccccc23)C(N)=O)C(C)C)C2CCCCC2)NC(=O)[C@H](CC(N)=O)NC(=O)[C@H](CC(C)C)NC1=O
B6: SEQ ID NO: 433 (peptide)
peptide: AQKILNEHGQRVWG
HELM: PEPTIDE1{[ac].[meA].Q.K.I.L.N.E.H.[O=C([C@@H](N[*:1])C1CCCCC1)[*:2]].Q.R.V.W.G.[am]}$PEPTIDE1,PEPTIDE1,4:R3-8:R3$$$V2.0
SMILES: CC[C@H](C)[C@@H]1NC(=O)[C@@H](NC(=O)[C@H](CCC(N)=O)NC(=O)[C@H](C)N(C)C(C)=O)CCCCNC(=O)CC[C@@H](C(=O)N[C@@H](Cc2c[nH]cn2)C(=O)N[C@H](C(=O)N[C@@H](CCC(N)=O)C(=O)N[C@@H](CCCNC(=N)N)C(=O)N[C@H](C(=O)N[C@@H](Cc2c[nH]c3ccccc23)C(=O)NCC(N)=O)C(C)C)C2CCCCC2)NC(=O)[C@H](CC(N)=O)NC(=O)[C@H](CC(C)C)NC1=O
B7: SEQ ID NO: 429 (peptide)
peptide: RRWPQKILDEHVRRVWR
HELM: PEPTIDE1{[ac].R.R.W.P.Q.K.I.L.D.E.H.V.R.R.V.W.R.[am]}$PEPTIDE1,PEPTIDE1,7:R3-11:R3$$$V2.0
SMILES: CC[C@H](C)[C@@H]1NC(=O)[C@@H](NC(=O)[C@H](CCC(N)=O)NC(=O)[C@@H]2CCCN2C(=O)[C@H](Cc2c[nH]c3ccccc23)NC(=O)[C@H](CCCNC(=N)N)NC(=O)[C@H](CCCNC(=N)N)NC(C)=O)CCCCNC(=O)CC[C@@H](C(=O)N[C@@H](Cc2c[nH]cn2)C(=O)N[C@H](C(=O)N[C@@H](CCCNC(=N)N)C(=O)N[C@@H](CCCNC(=N)N)C(=O)N[C@H](C(=O)N[C@@H](Cc2c[nH]c3ccccc23)C(=O)N[C@@H](CCCNC(=N)N)C(N)=O)C(C)C)C(C)C)NC(=O)[C@H](CC(=O)O)NC(=O)[C@H](CC(C)C)NC1=O
B8: SEQ ID NO: 446 (peptide)
peptide: WAQKILDEHGQRVW
HELM: PEPTIDE1{[ac].W.[meA].Q.K.I.L.D.E.H.[O=C([C@@H](N[*:1])C1CCCCC1)[*:2]].Q.R.V.W.[am]}$PEPTIDE1,PEPTIDE1,5:R3-9:R3$$$V2.0
SMILES: CC[C@H](C)[C@@H]1NC(=O)[C@@H](NC(=O)[C@H](CCC(N)=O)NC(=O)[C@H](C)N(C)C(=O)[C@H](Cc2c[nH]c3ccccc23)NC(C)=O)CCCCNC(=O)CC[C@@H](C(=O)N[C@@H](Cc2c[nH]cn2)C(=O)N[C@H](C(=O)N[C@@H](CCC(N)=O)C(=O)N[C@@H](CCCNC(=N)N)C(=O)N[C@H](C(=O)N[C@@H](Cc2c[nH]c3ccccc23)C(N)=O)C(C)C)C2CCCCC2)NC(=O)[C@H](CC(=O)O)NC(=O)[C@H](CC(C)C)NC1=O
B9: SEQ ID NO: 426 (peptide)
peptide: WAQEILDKHGQRVWG
HELM: PEPTIDE1{[ac].W.[meA].Q.E.I.L.D.K.H.[O=C([C@@H](N[*:1])C1CCCCC1)[*:2]].Q.R.V.W.G.[am]}$PEPTIDE1,PEPTIDE1,5:R3-9:R3$$$V2.0
SMILES: CC[C@H](C)[C@@H]1NC(=O)[C@@H](NC(=O)[C@H](CCC(N)=O)NC(=O)[C@H](C)N(C)C(=O)[C@H](Cc2c[nH]c3ccccc23)NC(C)=O)CCC(=O)NCCCC[C@@H](C(=O)N[C@@H](Cc2c[nH]cn2)C(=O)N[C@H](C(=O)N[C@@H](CCC(N)=O)C(=O)N[C@@H](CCCNC(=N)N)C(=O)N[C@H](C(=O)N[C@@H](Cc2c[nH]c3ccccc23)C(=O)NCC(N)=O)C(C)C)C2CCCCC2)NC(=O)[C@H](CC(=O)O)NC(=O)[C@H](CC(C)C)NC1=O
B10: SEQ ID NO: 450 (peptide)
peptide: WAESILKEHVQRVWG
HELM: PEPTIDE1{[ac].W.[meA].E.S.I.L.K.E.H.V.Q.R.V.W.G.[am]}$PEPTIDE1,PEPTIDE1,4:R3-8:R3$$$V2.0
SMILES: CC[C@H](C)[C@@H]1NC(=O)[C@H](CO)NC(=O)[C@@H](NC(=O)[C@H](C)N(C)C(=O)[C@H](Cc2c[nH]c3ccccc23)NC(C)=O)CCC(=O)NCCCC[C@@H](C(=O)N[C@@H](CCC(=O)O)C(=O)N[C@@H](Cc2c[nH]cn2)C(=O)N[C@H](C(=O)N[C@@H](CCC(N)=O)C(=O)N[C@@H](CCCNC(=N)N)C(=O)N[C@H](C(=O)N[C@@H](Cc2c[nH]c3ccccc23)C(=O)NCC(N)=O)C(C)C)C(C)C)NC(=O)[C@H](CC(C)C)NC1=O

target: T1, β-catenin (UniProt P35222 134-665, limits assumed, biotinylated in the SPR and plate assays); experiment: cell-based or functional assay
T1 sequence (looked up): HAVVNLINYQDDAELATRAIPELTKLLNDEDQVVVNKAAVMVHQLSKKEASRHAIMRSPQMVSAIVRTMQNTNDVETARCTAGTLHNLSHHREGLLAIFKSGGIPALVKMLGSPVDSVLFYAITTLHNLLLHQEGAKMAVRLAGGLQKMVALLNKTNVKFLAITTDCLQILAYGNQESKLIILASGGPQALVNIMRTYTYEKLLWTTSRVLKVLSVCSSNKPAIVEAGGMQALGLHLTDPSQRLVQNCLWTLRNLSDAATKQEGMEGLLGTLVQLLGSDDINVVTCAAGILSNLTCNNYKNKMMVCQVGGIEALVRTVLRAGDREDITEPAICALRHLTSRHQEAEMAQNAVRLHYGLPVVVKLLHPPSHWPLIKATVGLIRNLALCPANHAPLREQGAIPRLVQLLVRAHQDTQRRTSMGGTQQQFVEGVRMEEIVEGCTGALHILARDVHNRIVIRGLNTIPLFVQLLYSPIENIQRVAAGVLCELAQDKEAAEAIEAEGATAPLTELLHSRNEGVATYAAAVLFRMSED

Question: How did the “Wnt Reporter EC50” value turn out when H-MWFLISSW-OH [SEQ ID NO: 96] was run?
Answer: The value was > 7.5 µM and ≤ 15 µM.

Question: How did the “Wnt Reporter EC50” value turn out when B1 was run?
Answer: Its value is no more than 7.5 µM.

Question: B2 was tested. Which “Wnt Reporter EC50” value did it give?
Answer: Its value is > 15 µM and ≤ 22.5 µM.

target: T1, β-catenin; experiment: competitive FP
From the text: Fluorescence polarization (FP) is another method used to analyze protein-ligand interactions. This methodology measures the change in fluorescence light emitted by a labelled compound free vs. conjugated to another compound in solution. Upon binding of the fluorescent molecule to a complex, polarization increases because of limited rotation of the fluorescent tracer. Competitive FP is often utilized in drug screens as it is formatted for high throughput screens in a plate format. This immunoassay is performed by introducing a non-conjugated drug to compete for binding to the labelled competitor-ligand complex, leading to a reduction in polarization. […] Exemplary methodology is described in Example 13. Data were analyzed and plotted in Microsoft Excel (Microsoft, Redmond, WA).
Varying concentrations of β-catenin inhibitor candidate (SEQ ID NO: 404) were then added in a series of serial dilutions from 10 nM to 30 uM of inhibitor in different wells of the plate. The fluorescence polarization was read by Infinite M1000 (Tecan, Baldwin Park CA) at excitation wavelength of 470 nm and measured at emission wavelength of 520 nm. […] The experiments were performed three times and data were analyzed and plotted in Microsoft Excel (Microsoft, Redmond, WA).

Question: With H-MWFLISSW-OH [SEQ ID NO: 96] as the binder, how does the Kd read?
Answer: The Kd was > 10 µM and ≤ 30 µM.

Question: For B1, which Kd is on record?
Answer: The Kd was > 0.4 µM and ≤ 1 µM.

Question: B3 was tested. Which Kd did it give?
Answer: The Kd was no more than 0.4 µM.

Question: For B4, which Kd is on record?
Answer: Its Kd is no more than 0.4 µM.

Question: With B2 as the binder, how does the Kd read?
Answer: The Kd was no more than 0.4 µM.

Question: With Ac-W[NMeA]QKILNDH[Chg]QAVW-NH2 (lactam 4-8) [SEQ ID NO: 458] as the binder, how does the Kd read?
Answer: Its Kd is > 0.4 µM and ≤ 1 µM.

Question: With B5 as the binder, how does the Kd read?
Answer: The Kd was no more than 0.4 µM.

Question: MMVQSLFVPPVK (not fully specified; cyclo-glutaryl-*MM-NMeNva-QSLF-NMeNva-PP-NMeNva-K*-CONH2) [SEQ ID NO: 3] was tested. Which Kd did it give?
Answer: Its Kd is > 10 µM and ≤ 30 µM.

Question: With B6 as the binder, how does the Kd read?
Answer: The Kd was > 0.4 µM and ≤ 1 µM.

Question: How did the Kd turn out when B7 was run?
Answer: Its Kd is > 0.4 µM and ≤ 1 µM.

Question: B8 was tested. Which Kd did it give?
Answer: The Kd was no more than 0.4 µM.

Question: Ac-W[NMeA]QKILDEH[Chg]EDVWK-NH2 (lactam 11-15, 4-8 (inferred)) [SEQ ID NO: 464] was tested. Which Kd did it give?
Answer: The Kd was > 0.4 µM and ≤ 1 µM.

Question: With Stearoyl-GW[NMeW]ESILDEHVQRVWG-OH [SEQ ID NO: 2] as the binder, how does the Kd read?
Answer: Its Kd is no more than 0.4 µM.

Question: Which Kd does the source give for B9 here?
Answer: Its Kd is no more than 0.4 µM.

Question: B10 was tested. Which Kd did it give?
Answer: Its Kd is > 0.4 µM and ≤ 1 µM.
